The assay has as its target recombinant CD47 protein (Homo sapiens, UniProt Q08722). The assay is described as follows: SPR on CM5 chip conjugated with CD47. The class given is binding. Particulars: CD47 250 RU. As to the method:
Specifically, the recombinant CD47 protein was conjugated to the surface of the CM5 chip by a target SPR reaction of 250 RU through an EDC-NHS reaction to be used, and for HBS-P, the sensogram obtained through a process of association for 3 minutes and dissociation for 10 minutes at a flow rate of 30 μL/minutes was analyzed with the BiaEvaluation software using a 1:1 binding model and global fitting.

Chain of recombinant CD47 protein (Q08722 19-323): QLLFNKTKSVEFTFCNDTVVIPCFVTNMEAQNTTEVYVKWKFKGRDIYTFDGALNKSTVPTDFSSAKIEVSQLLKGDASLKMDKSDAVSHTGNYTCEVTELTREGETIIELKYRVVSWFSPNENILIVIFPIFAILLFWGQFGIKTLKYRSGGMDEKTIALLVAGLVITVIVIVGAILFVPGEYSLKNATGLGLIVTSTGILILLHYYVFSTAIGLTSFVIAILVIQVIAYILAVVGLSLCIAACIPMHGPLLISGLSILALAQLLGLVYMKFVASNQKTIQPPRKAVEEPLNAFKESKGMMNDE

In the case of “Sirpα: pure Sirpα (SEQ ID NO: 25), water-soluble domain of the original CD47 ligand”, the Kd was 290 nM.

B1: SV4-DSPE (conjugate)
chain: MEEELQIIQPDLSVSVAAGESAILHCTITSLFPVGPIQWFRGAGPARVLIYNQRQGPFPRVTTVSETTKRENMDFSISISNITPADAGTYYCIKFRKGSPDTEFLSGAGTELSVRAKPS
For B1, the kd amounted to 0.000256 s⁻¹.

What is called Kd is a measure of binding affinity in units of concentration.

For the origin of these results see patent US20230293571A1, “POLYNUCLEOTIDE FOR CANCER TREATMENT, ENCODING 5'-NUCLEOTIDASE MODIFIED PROTEIN” (priority 2020, published 2023).
